From patent US20230151437A1, “USE OF PROTEIN ASSEMBLIES TO RECORD CELLULAR EVENTS” (President and Fellows of Harvard College, priority 2021, published 2023)

Legend:
HEK cells [1] = experiment: Live-dead assay in HEK cells expressing iPAK4 assemblies; type: cell-based; conditions: n=24 fields of view
Description: FIGS. 9A-9C show a live-dead assay to assess the effect of iPAK4 assemblies on cell health. Related to FIG. 1A, FIG. 9A provides images of HEK293T cells expressing CMV::iPAK4 (95%) and CMV::HT-iPAK4 (5%). Many iPAK4 assemblies can be identified in a magnified view. […] Live cells (calcein-AM), dead cells (EthD-1), and HaloTag-iPAK4 stained with JFX608 are shown. FIG. 9C provides a statistical comparison of the dead cell population in iPAK4+ and iPAK4− groups. Each point represents one field of view. Two dishes per condition were investigated. […] The statistical comparison was performed by student's t-test. Lower and upper bounds of the box plot: 25th and 75th percentile; lower and upper whiskers: minimum and maximum; squares: mean; center lines: median.
It was then determined whether the iPAK4 assemblies affect cell survival, as the assemblies often grew longer than the cell diameters (FIG. 6A).

HEK cells [2] = experiment: HT dye switch fluorescence profiles of HT-iPAK4 assemblies in HEK cells; type: cell-based; conditions: dishes fixed at 8 h vs 30 h (22 h, one day)
Method: To test whether assemblies could encode HT dye timestamps, HEK cells growing HT-iPAK4 assemblies were successively washed with different colors of HT-ligand dyes at Δt=2 h intervals in the sequence JF503, JF669, JFX608, JF503, JF669 (FIG. 2A; see FIGS. 11A-11B for dye structures, photophysical properties, and synthesis of JFX608). The cells were then fixed and imaged with spectrally resolved confocal microscopy. Clear progression of colored bands matching the sequence of dye additions was observed.
To test the limits of how fast dye transitions could be encoded, assemblies were made with seven dye switches at Δt=1 h. At this short interval, peaks were still visible, but their amplitude was suppressed relative to the parts of the assembly with no dye switches, indicating incomplete transitions in dye labeling (FIG. 12E).
A protein ticker tape may stably store its information for extended times. […] The fluorescence profiles for the section of the assemblies that grew concurrently (from t=0 to 8 h) were then compared. […]
Image processing and data analysis: Images of individual assemblies were rotated to align the long axis to the x-axis. Fluorescence profiles were then calculated as the median fluorescence in each spectral channel across the width of the assembly. […] Dye transitions were identified as local maxima in the second derivative of the dye fluorescence as a function of position. […]

cultured neurons [3] = experiment: Live-dead assay in cultured neurons expressing iPAK4 assemblies; type: cell-based, rat; conditions: assemblies grown for 6 days
Method: Related to FIG. 5. […] Staining of live cells (calcein-AM) and dead cells (EthD-1) is shown. The assay was performed at day 6 after lentiviral infection. Many iPAK4 assemblies are present in FIG. 22A (assemblies share the channel with calcein-AM). Scale bars: 200 μm. FIG. 22C provides a statistical comparison of the live-cell and dead-cell populations, and the dead/live cell ratio in iPAK4+ and iPAK4− groups (N=5 fields of view per group).
To test for effects of iPAK4 assemblies on neuronal survival, iPAK4 (95%) and HT-iPAK4 (5%) were lentivirally expressed in cultured neurons, the assemblies were allowed to grow for 6 days, and then a live-dead assay was performed (FIGS. 22A-22C). […] The iPAK4-expressing neurons had typical soma and neurite structures, similar to those observed in healthy neurons.
Primary neuron culture: Before the plating of primary hippocampal neurons, 14 mm glass-bottom dishes were first incubated with 40 μg/ml poly-D-lysine (PDL) in PBS at room temperature for 1 h and subsequentially with 20 μg/ml laminin (Fisher Scientific; 23-017-015) at 4° C. overnight, followed by thorough wash with PBS. […] Neuronal health was monitored daily from DIV1 to DIV7. […]

cultured neurons [4] = experiment: Patch clamp electrophysiology of neurons with iPAK4 assemblies; type: cell-based, rat; conditions: N=11, mean±s.e.m.
Method: FIGS. 5A-5H show protein ticker tape recordings of cFos activation in neurons. FIG. 5A provides an image of a cultured neuron expressing lentiviral CMV::iPAK4 (90%) and CMV::eGFP-iPAK4 (10%). Scale bar 50 μm. […] Spikes were evoked by a current injection of 100 pA. […] Error bars show mean±s.e.m. Two-sided Student's t-test was employed for data comparison. […] Scale bar 5 μm.
Whether iPAK4 assemblies affected neuronal electrophysiology was then tested. Neurons infected with lentivirus encoding CMV::iPAK4 (90%) and CMV::eGFP-iPAK4 (10%) grew single straight assemblies (FIG. 5A). Patch clamp recordings were used to compare the electrophysiology of neurons with and without assemblies. Although in many cases the assembly length was several times longer than the soma diameter, neurons with assemblies spiked normally (FIG. 5B), and had membrane resistance, membrane capacitance, resting potential, and rheobase that were statistically indistinguishable from neurons without assemblies (N=11 neurons with assemblies, N=12 without, two-sided Student's t-test, FIG. 5C).
Patch clamp electrophysiology: Whole-cell recordings were performed in extracellular buffer containing (in mM): 125 NaCl, 2.5 KCl, 15 HEPES, 25 D-glucose, 1 MgCl2, and 2 CaCl2 (pH=7.2-7.3 with NaOH). Assembly-forming and non-forming (control) neurons were visualized with a home-built inverted epifluorescence microscope. Experiments were made at 23° C. under ambient atmosphere. The whole-cell internal solution comprised (in mM): 8 NaCl, 130 KMeSO3, 10 HEPES, 5 KCl, 0.5 EGTA, 4 Mg-ATP, and 0.3 Na3-GTP. The pH was adjusted to 7.2-7.3 with KOH and osmolarity was set to 290-295 mOsm/L. Borosilicate glass pipettes were used with a resistance of 3-5 MΩ (1.5 mm OD). Signals were acquired and filtered at 4 kHz with the internal Bessel filter using a Multiclamp 700B (Molecular Devices) and digitized with PCIe-6323 (National Instruments) at 10 kHz. Following the whole-cell configuration, membrane capacitance (Cm), and membrane resistance (Rm) were estimated under voltage-clamp mode. Measurements of resting membrane potential (Vrest), rheobase, and spike rates were made under current-clamp mode. Rheobase was defined as the minimum current step (in 500 ms duration) required for any spike onset. Whole-cell recordings were monitored and analyzed using a custom code written in LabView and Matlab.

B1: iPAK4: fusion of the catalytic domain of the Pak4 kinase and the 38 amino acid iBox domain of its inhibitor Inka1 (SEQ ID NO: 1) (protein)
chain: MDYKDDDDKSGSEAEDWTAALLNRGRSRQPLVLGDNCFADLVHNWMELPEEFPAAPAVPGPPGPRSPQREPQRVSHEQFRAALQLVVDPGDPRSYLDNFIKIGEGSTGIVCIATVRSSGKLVAVKKMDLRKQQRRELLFNEVVIMRDYQHENVVEMYNSYLVGDELWVVMEFLEGGALTDIVTHTRMNEEQIAAVCLAVLQALSVLHAQGVIHRDIKSDSILLTHDGRVKLSDFGFCAQVSKEVPRRKSLVGTPYWMAPELISRLPYGPEVDIWSLGIMVIEMVDGEPPYFNEPPLKAMKMIRDNLPPRLKNLHKVSPSLKGFLDRLLVRDPAQRATAAELLKHPFLAKAGPPASIVPLMRQNRTR
dead cells (HEK cells [1]): 0.267±0.139%
monomer exchange in the assembly (HEK cells [2]): negligible
fraction of dead cells vs dishes not infected with any lentivirus (cultured neurons [3]): no significant difference
membrane capacitance (cultured neurons [4]): 63±6 pF
membrane resistance (cultured neurons [4]): 404±73 MΩ
resting potential (cultured neurons [4]): −61.2±1.2 mV
rheobase (cultured neurons [4]): 89±12 pA
